Experiment [1] deals with T1, hPD-L2* (recombinant glycosylated human PD-L2 ectodomain, L20-T220, expressed in Expi293F cells) (human, UniProt Q9BQ51 20-220, glycosylated; Avi tag biotinylated in vitro with BirA).
T1 construct: range 20-220
T1 sequence: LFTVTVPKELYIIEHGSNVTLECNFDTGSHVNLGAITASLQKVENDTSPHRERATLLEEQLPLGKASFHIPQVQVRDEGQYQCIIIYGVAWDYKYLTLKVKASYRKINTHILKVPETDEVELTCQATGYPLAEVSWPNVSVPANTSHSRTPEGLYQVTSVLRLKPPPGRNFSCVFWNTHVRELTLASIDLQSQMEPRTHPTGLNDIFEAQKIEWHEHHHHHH
Briefly: radioactive pull-down of [35S]-labeled SPAM on immobilized target, normalized to hPD-L1 [cont.) D].

In experiment [2] the target is mPD-L1 (extracellular domain of mouse PD-L1, A18 to H239, expressed in E. coli, biotinylated) (mouse, biotin on the epsilon-amino group of the Avi tag lysine). The experiment can be described thus: radioactive pull-down of [35S]-labeled SPAM on immobilized target, normalized to hPD-L1.
mPD-L1 (extracellular domain of mouse PD-L1, A18 to H239, expressed in E. coli, biotinylated) (mouse, biotin on the epsilon-amino group of the Avi tag lysine), sequence (chain, as listed by the source limits assumed): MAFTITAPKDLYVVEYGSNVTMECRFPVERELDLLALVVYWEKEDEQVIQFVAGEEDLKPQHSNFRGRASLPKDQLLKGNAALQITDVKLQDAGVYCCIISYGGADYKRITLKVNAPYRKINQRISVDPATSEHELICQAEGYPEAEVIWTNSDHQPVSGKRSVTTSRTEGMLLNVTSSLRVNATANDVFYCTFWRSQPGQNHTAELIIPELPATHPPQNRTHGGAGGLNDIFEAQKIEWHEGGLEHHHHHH
The target of experiment [3] is T2, biotinylated hPD-L1 (extracellular domain of human PD-L1, Ala18 to Thr239, expressed in E. coli, … (human, biotin on the epsilon-amino group of the Avi tag lysine (BirA))).
T2 construct: also called recombinant hPD-L1; non-glycosylated hPD-L1
The experiment can be described thus: radioactive pull-down of [35S]-labeled alanine variant on immobilized hPD-L1, normalized to SPAM. As to the method: (§1) The conservation level for each doped residue in the X₁₇ library was obtained from next-generation sequencing data. […] FIG. 3 discloses SEQ ID NO: 180. […] Each measurement was carried out in triplicate and error bars show the standard deviation of the mean. (Students t-test; p value <0.05 (*), <0.01 (**), <0.005 (***)<0.001 (****))
[³⁵S]-labeled peptides were translated as described above by including 2 μCi labeled methionine (Perkin Elmer) per 10 pmol of template in the translation reaction. Each peptide was tested with a […] (for X₉-library derived peptides) (SEQ ID NO: 11) or a […] (for X17-library derived peptides) (SEQ ID NO: 12) C-terminal sequence. Binding assays using [35S]-labeled peptide-RNA fusions were similarly performed on hPD-L1 immobilized beads using 75 pmol hPD-L1 immobilized on streptavidin or neutravidin agarose beads (Thermo Fisher scientific) in blocking buffer (20 mM HEPES-KOH pH 7.5, 150 mM NaCl, 0.2% (v/v) Tween-20, 1 mg/mL BSA, 50 μg/mL tRNA and 0.02 mM biotin) at 4° C. for 1 h. The supernatant was removed and was counted.

The target in experiment [4] is T2, biotinylated hPD-L1 (extracellular …). The experiment can be described thus: radioactive pull-down of [35S]-labeled variant on immobilized hPD-L1, normalized to SPAM. As to the method:
as §1
[³⁵S]-labeled peptides were translated as described above by including 2 μCi labeled methionine (Perkin Elmer) per 10 pmol of template in the translation reaction. Each peptide was tested with a […] (for X₉-library derived peptides) (SEQ ID NO: 11) or a […] (for X17-library derived peptides) (SEQ ID NO: 12) C-terminal sequence. […] The supernatant was removed and was counted. The beads were subsequently washed three times with 1 mL of blocking buffer and the washes were also counted. Finally, the beads were resuspended in 1 mL of blocking buffer and were counted separately. The ratio of the counts remaining on the beads to the total counts added to the binding reaction (the sum of the counts for supernatant, washes, and beads) was calculated to determine the percent bound.

For experiment [5] the target is unchanged. Briefly: SPR (Biacore T-100), biotinylated hPD-L1 on SA chip, mPD-1 0.15-29 uM as analyte, 25 C, one-site saturation fit. As for the experimental part:
SPR analysis was performed on a Biacore T-100 at the USC Nanobiophysics core. […] The response values were fit to a one-site saturation binding model in GraphPad Prism to obtain an equilibrium binding constant.

Experiment [6] shares this target. The experiment can be described thus: ELISA/IP: 100 nM biotinylated hPD-L1 on streptavidin magnetic beads, SPAM 0.1, 1, 10 uM; competitor 100 nM HA-tagged mPD-1 detected with anti-HA-HRP. As to the method:
For ELISA/IP assays, 20 μL of MyOne™ Streptavidin T1 magnetic beads Dynabeads™ (Thermo Fisher Scientific) were loaded with 100 nM biotinylated hPD-L1 in assay buffer (20 mM HEPES-KOH pH 7.5, 150 mM NaCl, 0.2% (v/v) Tween-20, 1 mg/mL BSA and 50 μg/mL tRNA) at 4° C. […] The samples were then washed and incubated with a 1:5,000 dilution of HRP conjugated anti-HA antibody (Pierce HA Antibody, Rockford. Ill., USA) for 1 h at 4° C. The beads were washed again and developed with TMB Substrate Kit (Thermo Scientific) for 30 minutes and the reactions stopped by adding 100 μL of […] sulfuric acid.

Experiment [7] deals with T3, mPD-L1 expressed on CHO cells (CHO-mPD-L1) (mouse, UniProt Q9EP73 19-290).
T3 construct: whole, on cells; The construct in the CHO cells is not described
T3 sequence (Q9EP73 19-290): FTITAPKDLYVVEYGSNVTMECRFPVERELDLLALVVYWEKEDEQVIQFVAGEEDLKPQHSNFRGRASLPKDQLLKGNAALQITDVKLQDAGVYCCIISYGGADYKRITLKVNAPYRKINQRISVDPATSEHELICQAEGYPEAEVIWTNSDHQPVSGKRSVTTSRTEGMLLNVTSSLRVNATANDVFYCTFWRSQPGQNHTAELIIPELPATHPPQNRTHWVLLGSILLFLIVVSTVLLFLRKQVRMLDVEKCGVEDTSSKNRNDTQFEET
Briefly: flow cytometry competition on CHO-mPD-L1 cells: pre-incubation with the peptide, then Fluorescein-16373; % of median fluorescence intensity [cont.) D]. The source says: Bars represent means±SD, n=3. One-way ANOVA with Dunnett's multiple comparison's test p value <0.05 (*), <0.01 (**), <0.001 (***).
Cells were then washed three times with cold serum free DMEM. Cells were subsequently processed by flow cytometry with a BD FACSCalibur system using the FL1 channel. FlowJo v10.1 was used to gate to the major population and median FL1 fluorescence reported.

*1 amine or outer side, *2 acyl side, *3 side chain or, on linkers, in order; H or OH if unused. Where no end group is shown, it is not given here. [ ]: non-standard residue; d: D form. Met(35S) = [35S]-methionine label, C[35S]CC[C@H](N[*:1])C(=O)[*:2]; 35S = [35S]-methionine radiolabel; Pra = C#CC[C@H](N)C(=O)O

The values that follow come from US20230174616A1 (UNIVERSITY OF SOUTHERN CALIFORNIA, published 2023).

B1: [35S]-labeled SPAM peptide (in vitro translated) (peptide)
peptide: M(35S)PIFLDHILNKFWILHYAGSGSSGHHHHHHSS
notes: Translated in reticulocyte lysate; also called [35S]-SPAM; radiolabeled SPAM peptide
Take B1: the binding result in experiment [1] and in experiment [2] was “no binding” in each case.

B2: SPAM I14A variant (peptide)
peptide: [Met(35S)]PIFLDHILNKFWALHYAGSGSSGHHHHHHSS
notes: in vitro translated alanine-scan variant
In the case of B2, the binding result in experiment [3] is reported as “no binding”.

B3: SPAM A18 variant (glycine substituted for alanine at position 18) (peptide)
peptide: [Met(35S)]PIFLDHILNKFWILHYGGSGSSGHHHHHHSS
As to B3, the binding result in experiment [4] is “no binding”.

B4: SPAM P2A variant (peptide)
peptide: M(35S)AIFLDHILNKFWILHYAGSGSSGHHHHHHSS
notes: as for B2
In the case of B4, the binding result in experiment [3] was “binds”.

B5: SPAM H16A variant (peptide)
peptide: [Met(35S)]PIFLDHILNKFWILAYAGSGSSGHHHHHHSS
notes: as for B2
As to B5, in experiment [3], the binding result was “no binding”.

B6: SPAM I8A variant (peptide)
peptide: M(35S)PIFLDHALNKFWILHYAGSGSSGHHHHHHSS
notes: as for B2
With B6, the binding result in experiment [3] is reported as “binds”.

B7: SPAM L5A variant (peptide)
peptide: M(35S)PIFADHILNKFWILHYAGSGSSGHHHHHHSS
notes: as for B2
Take B7: in experiment [3], the binding result is on record as “binds”.

B8: SPAM I3A variant (peptide)
peptide: M(35S)PAFLDHILNKFWILHYAGSGSSGHHHHHHSS
notes: as for B2
In the case of B8, in experiment [3], the binding result is listed as “binds”.

B9: SPAM W13A variant (peptide)
peptide: M(35S)PIFLDHILNKFAILHYAGSGSSGHHHHHHSS
notes: as for B2
As for B9, the binding result in experiment [3] was “no binding”.

B10: SPAM K11A variant (peptide)
peptide: M(35S)PIFLDHILNAFWILHYAGSGSSGHHHHHHSS
notes: as for B2
With B10, the binding result in experiment [3] is recorded as “no binding”.

B11: SPAM L9A variant (peptide)
peptide: M(35S)PIFLDHIANKFWILHYAGSGSSGHHHHHHSS
notes: as for B2
In the case of B11, in experiment [3], the binding result is “binds”.

B12: SPAM L15A variant (peptide)
peptide: M(35S)PIFLDHILNKFWIAHYAGSGSSGHHHHHHSS
notes: as for B2
Regarding B12, the binding result in experiment [3] is recorded as “no binding”.

B13: SPAM F12A variant (peptide)
peptide: [Met(35S)]PIFLDHILNKAWILHYAGSGSSGHHHHHHSS
notes: as for B2
Turning to B13, in experiment [3], the binding result is “no binding”.

B14: SPAM H7A variant (peptide)
peptide: [Met(35S)]PIFLDAILNKFWILHYAGSGSSGHHHHHHSS
notes: as for B2
Regarding B14, the binding result in experiment [3] is on record as “no binding”.

B15: SPAM D6A variant (peptide)
peptide: [Met(35S)]PIFLAHILNKFWILHYAGSGSSGHHHHHHSS
notes: as for B2
With B15, in experiment [3], the binding result was “no binding”.

B16: SPAM F4A variant (peptide)
peptide: [Met(35S)]PIALDHILNKFWILHYAGSGSSGHHHHHHSS
notes: as for B2
In the case of B16, the binding result in experiment [3] is given as “binds”.

B17: SPAM N10A variant (peptide)
peptide: M(35S)PIFLDHILAKFWILHYAGSGSSGHHHHHHSS
notes: as for B2
In the case of B17, in experiment [3], the binding result is given as “no binding”.

B18: mPD-1 (extracellular domain of mouse PD-1, L15 to S157, C83S, HA tag and His tag, expressed in E. coli) (receptor)
chain: MALEVPNGPWRSLTFYPAWLTVSEGANATFTCSLSNWSEDLMLNWNRLSPSNQTEKQAAFSNGLSQPVQDARFQIIQLPNRHDFHMNILDTRRNDSGIYLCGAISLHPKAKIEESPGAELVVTERILETSTRYPSGGYPYDVPDYALEHHHHHH
notes: also called HA-tagged mPD-1; murine variant of PD-1
In experiment [5], B18 returned a dissociation constant Kd of 3200 nM.

B19: SPAM peptide (synthetic, MPIFLDHILNKFWILHYASG-Pra) (peptide)
peptide: MPIFLDHILNKFWILHYASG[Pra]-NH2
Consider B19, for which the concentration for half-maximal inhibition (IC50) in experiment [6] is about 1100 nM. In experiment [7], the binding result is “no binding (tested: 10 µM)”.
